# Source: paper doi:10.1101/2021.12.15.472864 (bioRxiv, 2021)
# B1: ADI-62113 Fab (Fab, V domains shown)
# VH: QVQLQQSGAEVKKPGASVKLSCKASGYTFSVFPIHWVRQAPGQRLEWMGWHNAGDGDTKYSQKFQGRVTIISDTSASTAYMELSSLKSEDTAVYYCARAARPYYDRRGYFFRADYFQHWGQGTLVTVSS
# VL: DIQVTQSPSSLSASVGDRVTITCQASQDIKNSLNWYQQKPGKAPKLLISDASNLETGVPSRFSGNGSGTDFTFTISSLQPEDIATYYCQQYDNLITFGPGTKVEIK
# Molecular target: SARS-CoV-2 spike receptor-binding domain (RBD), residues 333-529 (SARS-CoV-2, UniProt P0DTC2)
# Assay: crystal structure
binder,measurement,value
B1,binding result,binds
